Measured values as given in the DeepSol protein solubility set.

Assay: soluble on expression in E. coli; label from the status in PepcDB or PDB records
With “MLVENLAHFSADTRFEADLVIIGGGPAGLTVARELRGAPLRVLIVESGLLEEAPQANELSTLESIGEPNAPHQIQKRIAFHGANCRSWTQDLQPYGVRCRALGGSTHAWAGKSAAFDDIDFQERAWVPHSGWPMDRSSLDPFLDRAADILNLGPNRYDDTLWTLLGISPPEPQLGTQGLRSFFWQFSRSRVDPLDIMRFGADFLRLEADNIRVLLNATATRLDLTQEGDGFRGLEIATNDGQRHTVHAKAAVIAGGGIENARLLLASTTIHANGVGNQYDLVGRFLMDHAGARIARFGGSNANQIMRRFGFYGLRNSGRTSMYMHGLAITPEMQEREHLLNSAIYFMPEHAADDPWDAVKRLLTGKSKRQVKDAMRAIAGAGLLGKGAAMKLLSSDRLPVAVKDFIVQTAIRYMPNVAADDFLSRGVPHKVTDVWIDAISEQQPDPDSRITLSEKTDRLGLPLARVNWKINADERRTIMRLGHIVESAFAQARLPKPILEPWVAEGAFNDAVIIDMAHSMGTTRMSASARSGVVDEQCQVHGVRDLYIAGSSIFPTSGHANPTLMIVAFAVRLADRIRQTLL” the “soluble on expression in E. coli” value was “not soluble”. For “MLWMVIGMWDTSKDYRLMVAVKAVDLFRRTLESGGFRGQWKKKPALQAAGEIERILQGLTYCYMEPEDLASSPEVMEIKGKVEEIVEALGGEDWSRRFLEEAPREEREKVEENIARVRFFLNTLGNLDRRLMLGKISDPVIGVDIITGEVMSVGNHPVADKLHVCNVNAGGRSIKVVTNDLDVRENDHVAVALLPPQNFMGVTSEGMFLGVEGVLRDVDGEPGEMPRGIPLEALNETRNLVEEFLKS”, the “soluble on expression in E. coli” value was “soluble”. In the case of “MLWPFRWVWWKRVLTSQTRAPAKPNPLTVPPTCTWWSLRKLPNPTKLDDDLKNLLDPNEVRARMLKSFGTENFTQPQPQPQALKTTTPVFGTSSGNLGSVLSGGGYHAGLKHHQSTVTRSTGEWVDR”, the “soluble on expression in E. coli” value is reported as “soluble”. With “MMAESTGVDRGIQSLIAARKSLKLSLEKSKAIGLALGKTGPRFDEIEQRLPLLEAAVRPIRADGEALKDVGGNINRAVGPAAAVLKVFDAVHGLEKSLLSDPKNDLSSYLSVLKRLEEALKFLGENCGLAIQWLEDIVEYLDDHHVADEKYLSNLKKSLRGLSEFHNDRGGGEEKERSQLRLDGGLRNAALDKLENEFRRLLKDNSVPLPMASPSSLGDQACIAPSQLPVTVIHKLQAILGRLRANNRLDKCISIYVEVRSLNVRASLQALDLDYLDISVSEFNDVQSIEGYIAQWGNHLEFAVKHLFEAEFKLCNDVFERLGLNVWMDCFSKIAAQAGMLAFLQFGKTVTDSKKDPIKLLKLLDIFTSLNKLRADFNRLFGGAACIEIQNFTRDLIKRIIDGAAEIFWELLVQVEIQKQTPPPSDGGVPRLVSFVTDYCNKLIGDKYKSTLTQVLLIHKSWRSERFQDNQLMVEVLRIIKAIEQNLDVWMKAYPDQTLAHFFGMNNHWHLYKNLKGTNIGDHLGDSWLKEHDQYKEYYATVFLRDSWGKLPSHLSREGLILFSGGHATARDLVKKRLKAFNDAFDEMYKKQASWVLPEKDLRDRVCQQIVQAIVPVYRSYMQNYGPLVEKDASSSKYVRYTVVALEKILSSLYMPKPMRYGSFKGTPPSEKFKNDVDLRRTTSAVV” the “soluble on expression in E. coli” value was “soluble”. For “MMASHSDGKNMAKRKKRTKRGRPRINGCIREPNGRISRTKMPLDPIDKLAIEMRAKRFCLTLQEAKNPLSGTYIGRLYLQGNINQDQYDAAQKYLEVRNDYLCAKTLPSAIYDKMPSSSDEAARKKWVEFATKQFLNMQEVIKETQHLYRQHNFYAALQYLVSEDQELPYLVPSLADSP”, the “soluble on expression in E. coli” value was “not soluble”. In the case of “MMCISKLPAVLLILSVALNHLRATPVRSGSNPQMDKRKCNTATCATQRLANFLVRSSNNLGPVLPPTNVGSNTYGKRNAAGDPNRESLDFLLV”, the “soluble on expression in E. coli” value is reported as “not soluble”. In the case of “MMDRVCRLSLAALLAGSGAAYADGSTLTVAYYGGNWGEAFDACVAQPFTEKTGIRVVAEIGNSTTTLAKLQQQSGDAVIDVAYMDGGISELAQEAGVLAPIDLAAIPNAASYLPQAVYKAGDEVFAVSAGYYSLGLIYNTSEVTETPDTWLSLWDESYAGAVALPSPSNSSGVPFVLFLARSVLGDTSESLDPTFAKLKELDTGLLFDSSGAASNAFQSSEVIIGAHFNVGAWDLTDGGLPIGFSVPKEGVWATDARMHVVKGTKNPEGAAQYLDMAASPEAAACLAERLYLGPPVTGVTLAPDVERKLPWGEGGSVEKLHLSDWTEVNARRAAIVERWNREIAN”, the “soluble on expression in E. coli” value is reported as “not soluble”. For “MMHNPAHPGEVLKVAFLEEMGLTIQKLADHLHMTRASLSRVINGHASMSTELAIKLELAGFSKAKFWLDMQTNYNLWKTMQQAQPPISPLVSDSPQTSL”, the “soluble on expression in E. coli” value was “not soluble”. For “MMIMREILISECIELLRSHKFIVSKPLGRSCFDMVASKEDIRLILKILKNIDSLSRDQSKELKKISKILHGTPLIIGIRTRNAPMEHGVVYDRYNIKAVTFETFRDYLEGSPPMVYANRGGFFVKIDGKVLKEVREAMGISVGKLAEVAGVSRKAIYKYETQMANPSVDVALKIEEFLDVPLVKGIDLFEPVDDEDVENKLENLEDFKKEAINFLNELGFKSFVVEKAPFDAVAEKDMDNNLNILLTNIEEKDNEEVKRKALFVRELSRLLDGYSLLILEEKEKEYKNLPVVSIEELKKMDDALELIEHIKSMLRDIR”, the “soluble on expression in E. coli” value was “soluble”. With “MMKIAIIGSGISGLTCGYYLHRYHDITLFEANDYIGGHTATVDVELAGKPYAVDTGFIVYNDRTYPNFIKMMDEIGVQGKPTQMSFSVRNDANGLEYNGHTLTTLFAQKRNWLNPKFYRFIAEILRFNRLTKACVDNQLANEQTLGDFLAQHQFSEYFCENYILPMGAAIWSSSLADMRAFPLMFFARFFLNHGLLDVTNRPQWYVIPGGSRSYIAPLTQGFGDRIRLNSAVTQVKRLPSGVEVVVNGRSERFDEVIFACHSDQALAMLSDASSTEQQLLSALAYQANEVVLHTDTRLLPKRKAAWAAWNYWLKGEANQETRLPSLTYNMNILQHIEAPETFCVTLNSSEDIDPSKILRRFTYHHPVFSRPAIEAQQKKAQISGVNHTWFCGAYWHNGFHEDGVRSALDVVTQLEAYAQRSEQGAA” the “soluble on expression in E. coli” value was “not soluble”. In the case of “MMKIVPPKPFFFEAGERAVLLLHGFTGNSADVRMLGRFLESKGYTCHAPIYKGHGVPPEELVHTGPDDWWQDVMNGYEFLKNKGYEKIAVAGLSLGGVFSLKLGYTVPIEGIVTMCAPMYIKSEETMYEGVLEYAREYKKREGKSEEQIEQEMEKFKQTPMKTLKALQELIADVRDHLDLIYAPTFVVQARHDEMINPDSANIIYNEIESPVKQIKWYEQSGHVITLDQEKDQLHEDIYAFLESLDW”, the “soluble on expression in E. coli” value is reported as “soluble”. In the case of “MMKKIAITCALLSSLVASSVWADAASDLKSRLDKVSSFHASFTQKVTDGSGAAVQEGQGDLWVKRPNLFNWHMTQPDESILVSDGKTLWFYNPFVEQATATWLKDATGNTPFMLIARNQSSDWQQYNIKQNGDDFVLTPKASNGNLKQFTINVGRDGTIHQFSAVEQDDQRSSYQLKSQQNGAVDAAKFTFTPPQGVTVDDQRK”, the “soluble on expression in E. coli” value is reported as “soluble”. For “MMKTFHWKVDPDMGVDSEPQVSVVRFGDGYEQRRASGINNDLKKYSVTIRVDREDGPGLEGFLSQHNGVKAFLWTPPYGYRQIKVVCRKWSVKAGLLKTTFTATFEQVIS”, the “soluble on expression in E. coli” value was “not soluble”. For “MMKVYRLYLRDEYLEMVKSGKKRIEVRVAYPQLKGMKRGDKIIFNDEVPAEVIEVKHYETFRQVLREEPIDKIFPDEPSFERALRRFHNLYPKWKENRYGVIAIKFKLLGRERK”, the “soluble on expression in E. coli” value was “soluble”. For “MMQALTYYRDLAANTMPGSNDIMEVKDAFMNGTAPMAIYSTYILPAVIKEGDPKNVGFVVPTEKNSAVYGMLTSLTITAGQKTEETEAAEKFVTFMEQADNIADWVMMSPGAALPVNKAVVTTSTWKDNDVIKALGELPNQLIGELPNIQVFGAVGDKKFTRMGDVTGSGVVSSMVHNVTVGKADLPGTLQTSQKKLDELIEQH”, the “soluble on expression in E. coli” value was “not soluble”. In the case of “MMQMPKIGIIGGSGVYGVFEPKEVVKVHTPYGRPSAPIEIGEIEGVEVAFIPRHGKYHEFPPHQVPYRANIWALHELGVERVIAINAVGSLKEEYKPGDIVIIDQFIDFTKKREYTFYNGPKVAHVSMADPFCPELRKIFIETAKELNLPVHERGTYVCIEGPRFSTRAESRMFRQFADVIGMTLVPEVNLARELGMCYVNISTVTDYDVWAEKPVDAQEVLRVMKENEEKVQKLLKRAIPKIPEERKCGCADVLKTMFV”, the “soluble on expression in E. coli” value is reported as “soluble”. With “MMQPVIRKNHMDIAWHEYTDENGADIPVTQASLTEKASIIGRVGIMFLSCGTGAWRVRSSMNTLAEIMGITCTADIGLMSIEYTCFDGEEGFTQSLCLTNTGVNTSKLNRLEHFIREFEIDGKDMSGEELHTLLDDIER” the “soluble on expression in E. coli” value was “not soluble”.
